Source: patent US20220204575A1, “MODULATING SURVIVAL OF THERAPEUTIC CELLS AND METHODS, CELLS AND NUCLEIC ACIDS RELATED THERETO” (The Regents of the University of California, priority 2019, published 2022)

B1: BIK: pro-apoptotic BIK protein, human UniProt Q13323, SEQ ID NO: 104 (protein)
chain: MSEVRPLSRDILMETLLYEQLLEPPTMEVLGMTDSEEDLDPMEDFDSLECMEGSDALALRLACIGDEMDVSLRAPRLAQLSEVAMHSLGLAFIYDQTEDIRDVLRSFMDGFTTLKENIMRFWRSPNPGSWVSCEQVLLALLLLLALLLPLLSGGLHLLLK
B2: BAD: pro-apoptotic BH3-only BCL-2 family protein, UniProt Q92934, heterologously expressed in T cells (protein, UniProt Q92934 1-168, looked up)
Bcl2-associated agonist of …: MFQIPEFEPSEQEDSSSAERGLGPSPAGDGPSGSGKHHRQAPGLLWDASHQQEQPTSSSHHGGAGAVEIRSRHSSYPAGTEDDEGMGEEPSPFRGRSRSAPPNLWAAQRYGRELRRMSDEFVDSFKKGLPRPKSAGTATQMRQSSSWTRVFQSWWDRNLGRGSSAPSQ
B3: PUMA: pro-apoptotic PUMA protein, human UniProt Q9BXH1 (protein, UniProt Q9BXH1 1-193, looked up)
Bcl-2-binding component 3, …: MARARQEGSSPEPVEGLARDGPRPFPLGRLVPSAVSCGLCEPGLAAAPAAPTLLPAAYLCAPTAPPAVTAALGGSRWPGGPRSRPRGPRPDGPQPSLSLAEQHLESPVPSAPGALAGGPTQAAPGVRGEEEQWAREIGAQLRRMADDLNAQYERRRQEEQQRHRPSPWRVLYNLIMGLLPLPRGHRAPEMEPN

Key:
[1] = tested on: human primary CD4 T cells; assay: Anti-Her2 synNotch driving pro-apoptotic BCL-2 family protein X, T cell survival with antigen-expressing target cells; type: cell-based; conditions: for induced apoptosis of T cells: in the presence of antigen-expressing target cells
Description: For example, a circuit was designed, as schematically depicted in FIG. 27, with an anti-Her2 synNotch driving expression of a pro-apoptotic BCL-2 family protein “X”, where X stands for the various pro-apoptotic BCL-2 family members were tested in the depicted circuit. As shown, upon the anti-Her2 scFv portion of the synNotch receptor binding Her2 expressed by a target cell, the transcription factor (TF) portion of the synNotch, containing Gal4-VP64, is released and inducing expression of the pro-apoptotic BCL-2 family protein “X”. The level of induced apoptosis in the presence of cells expressing the target antigen, as compared to control cells not expressing the target antigen, was then assessed.
Results of testing BID, tBID, PUMA, BMF, HRK and BIK as pro-apoptotic BCL-2 family protein “X” in this system are shown in FIG. 28, along with a negative control employing BFP in place of the pro-apoptotic BCL-2 family protein “X”.
Thus, the therapeutic cells encoding the BID circuit were able to survive BID induction.

primary human T cells = assay: Constitutive overexpression of pro-apoptotic BCL-2 family proteins in T cells, FACS at culture day 12; type: cell-based; conditions: constitutive expression
Description: The abilities of several pro-apoptotic proteins (e.g., BIM, truncated Bid (tBID), and BAD) to induce T cell apoptosis when synthetically overexpressed from a constitutive promoter were tested. The tested T cells were also engineered to constitutively overexpress anti-apoptotic BCL-2.
Without being bound by theory, these effects were likely due to leaky expression of BIM, the high effectiveness of BIM in inducing apoptosis, or a combination thereof.

Molecule	relative level of induced therapeutic cell killing ([1]; comparison among tBID, PUMA, BMF, HRK and BIK)	induced apoptosis of T cells [1]	ability to drive T cell death (primary human T cells; in the absence of overexpressed BCL-2)	ability to induce T cell apoptosis / drive T cell death (primary human T cells; with constitutive overexpression of BCL-2, culture day 12)
B1	lower level of induced therapeutic cell killing	induce apoptosis of human primary CD4 T cells		
B2			insufficient to drive T cell death	insufficient to drive T cell death
B3		induce apoptosis of human primary CD4 T cells		
